The assay has as its target Protease Mixtures. The assay can be described thus: cell-based or functional assay.

Here are results for 1 molecule from patent US20230250154A1.

B1: Variant A2M, bait region SEQ ID NO 143, P01023 24-1474 (protein)
chain: SVSGKPQYMVLVPSLLHTETTEKGCVLLSYLNETVTVSASLESVRGNRSLFTDLEAENDVLHCVAFAVPKSSSNEEVMFLTVQVKGPTQEFKKRTTVMVKNEDSLVFVQTDKSIYKPGQTVKFRVVSMDENFHPLNELIPLVYIQDPKGNRIAQWQSFQLEGGLKQFSFPLSSEPFQGSYKVVVQKKSGGRTEHPFTVEEFVLPKFEVQVTVPKIITILEEEMNVSVCGLYTYGKPVPGHVTVSICRKYSDASDCHGEDSQAFCEKFSGQLNSHGCFYQQVKTKVFQLKRKEYEMKLHTEAQIQEEGTVVELTGRQSSEITRTITKLSFVKVDSHFRQGIPFFGQVRLVDGKGVPIPNKVIFIRGNEANYYSNATTDEHGLVQFSINTTNVMGTSLTVRVNYKDRSPCYGYQWVSEEHEEAHHTAYLVFSPSKSFVHLEPMSHELPCGHTQTVQAHYILNGGTLLGLKKLSFYYLIMAKGGIVRTGTHGLLVKQEDMKGHFSISIPVKSDIAPVARLLIYAVLPTGDVIGDSAKYDVENCLANKVDLSFSPSQSLPASHAHLRVTAAPQSVCALRAVDQSVLLMKPDAELSASSVYNLLPEKDLTGFPGPLNDQDDEDCINRHNVYINGITYTPVSSTNEKDMYSFLEDMGLKAFTNSKIRKPKMCPQLEQYEMHGPIPENFFGVSEDLVVQIEGEGEGEGEAIPMSIPTEPHTKLRKYFPETWIWDLVVVNSAGVAEVGVTVPDTITEWKAGAFCLSEDAGLGISSTASLRAFQPFFVELTMPYSVIRGEAFTLKATVLNYLPKCIRVSVQLEASPAFLAVPVEKEQAPHCICANGRQTVSWAVTPKSLGNVNFTVSAEALESQELCGTEVPSVPEHGRKDTVIKPLLVEPEGLEKETTFNSLLCPSGGEVSEELSLKLPPNVVEESARASVSVLGDILGSAMQNTQNLLQMPYGCGEQNMVLFAPNIYVLDYLNETQQLTPEIKSKAIGYLNTGYQRQLNYKHYDGSYSTFGERYGRNQGNTWLTAFVLKTFAQARAYIFIDEAHITQALIWLSQRQKDNGCFRSSGSLLNNAIKGGVEDEVTLSAYITIALLEIPLTVTHPVVRNALFCLESAWKTAQEGDHGSHVYTKALLAYAFALAGNQDKRKEVLKSLNEEAVKKDNSVHWERPQKPKAPVGHFYEPQAPSAEVEMTSYVLLAYLTAQPAPTSEDLTSATNIVKWITKQQNAQGGFSSTQDTVVALHALSKYGAATFTRTGKAAQVTIQSSGTFSSKFQVDNNNRLLLQQVSLPELPGEYSMKVTGEGCVYLQTSLKYNILPEKEEFPFALGVQTLPQTCDEPKAHTSFQISLSVSYTGSRSASNMAIVDVKMVSGFIPLKPTVKMLERSNHVSRTEVSSNHVLIYLDKVSNQTLSLFFTVLQDVPVRDLKPAIVKVYDYYETDEFAIAEYNAPCSKDLGNADYKDDDDKGASHHHHHH
Regarding B1, the Protease Inhibition (% of WT); Protease Mixtures, IGD Substrate was 110 % of WT.
